Laboratory results: the nanobody polyreactivity screen of Harvey et al. (2022)

assay: yeast display, Sf9 membrane polyspecificity reagent, FACS + sequencing; frameworks hold sequencing errors
Method in brief: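 Galactose induction of a Saccharomyces cerevisiae BJ5465 synthetic nanobody display library ran 36–48 hours. The cells were then stained for 1 hour at 4 °C with 10% biotinylated, detergent-solubilized Sf9 membrane reagent, pulled down on streptavidin microbeads and FACS-sorted into low and high (top ~1%) gates on expression and reagent-binding fluorescence. Labels for polyreactivity follow the gate of origin.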

Sequence	polyreactivity (PSR sort gate)
QVQLVESGGGLVQAGGRLRLSCAASGGLLDIYVMGWYRQAPGKERELVAAITTRGGSTFYADSVKGRFTISRDNAKNTVYLQMNSLIPEDTAVYYCNKRLLVSRSSAQAYGYWGQGTQVTVSS	high polyreactivity
QVQLVESGGGLVQAGGSLRLSCAASGSIFQWYAMGWYRQAPGKERELVAVISRGGRTNYADSVKGRFTISRDNAKNTVYLQMNSLKPEDTAVYYCAAAVWFERGFSYRWRYGYWGQGTQVTVSS	high polyreactivity
QVQLVESGGGLVQAGGSLRLSCAASGRIFLKYSMGWYRQAPGKERELVAAISRGGSTYYADSVKGRFTISRDNAKNTVYLQMNSLKPEDTAVYYCAATSYRRTGYNYWGQGTQVTVSS	high polyreactivity
QVQIVESGGGLVQAGGSLRISCAASGRTFRWYAMGWYRQAPGKERELVASITWSGGSTYYADSVKGRFTISRDNAKNSVYLQMNSLKPEDTAVYYCAAEKRYTYVGGPFNYWGQGIQVTVSS	high polyreactivity
QVQLVESGGGLVQAGGSLRLSCAASGIIFYRYAMGWYRQAPAKERELVAAISRSGGSTYYADSVKGRFTISRDNAKNTVYLQMNSLKPEDTAVYYCAARVRTNYYGSYYYWGQGTQVTVSS	high polyreactivity
QVHLVESGGGLVQAGGSLRLRCAASGFILGAYAMGWYRQAPGKERELDAAISYSGGRTYYADSVKGRFTISRDNAKNTVYLQMNSQNPEDTAVYYCAADWYYGYFFSVAGEHEYCGQGTQVTVSS	high polyreactivity
QVQLVESGGGLVQAGGSLRLSCAASGRISYYYMGWYRQAPGKERELVAAISWNGGRTYYADSVKGRFTISRDNAKNTVYLQMNSLKPEDTAVYYCAARFYSRAFWPAYYYWGQGTQVTVSS	high polyreactivity
QVQLVESGGGLVQAGGSLRLSCAASGIIFRSYTMGWYRQAPGKERELVASITRSGGITYYADSVKGRFTISRDNAKNTVYLQMNSLKPEDTAVYYCSARHRYYSYSGYDYWGQGTQVTVSS	high polyreactivity
QVQLVESGGGLVQAGGSLRLSCAASGSIFRYYAMGWYRQAPGKERELVAAISWDGGTTYYADSVKGRFTISRDNAKNTVYLQMNSLKPEDPAVYYCNVEFPLSSYGYDYWGQGTQVTVSS	low polyreactivity
QFQLVESGGGLVQAGGSLRLSCAASGFTFSHNTMGWYIQSPGKEREFVARISGRGVSTSYADSVKGRFTISRDNAKNTVYLQMNCLKPEDTAVYYCNRRVAYLSGYSYDYWGQGTQVTVSS	high polyreactivity
QGQLEESVGGLVQAGGSLRLSCAASGRIFRYYAMGLYRQAPGKERELVAAIRSGGSTNYADSVKGRFTISRDNAKNTVYLQMKSLKPEDTAVYYCNARYRYFKGGYWGQGTQVTVSS	high polyreactivity
QVQIVESGGGLVQPGGILRLSCAASGSTSQPYDMGWYRQAPGKEWELVASITKGRITYYADSVKGRFTISRDNAKNTVYLQMNSRKPEDTAVYYCNADNVFEGYDGRSARASYRYYSWGQGTQVTVSS	low polyreactivity
QEQLQESRGGLVQAGGSLRMTCAASGYNYLAHTIGWYRQAPGKELEFVASIALGSSTYYTDSVKGSFTISRDNAKTTVYLQKNSQKPEDTAVYYCAARVGASYAHDYWGQGTQVTVSS	low polyreactivity
QVHLVESGGGLVQAGGSLRLSCAASGSISVWYVIVWYRQAPGKERELVAAITRSGGSTFYADSVKGRFTISRDNAKNTVYLQMNSLKPEDTAVYYCAASFRDDFPQRLDYWGQGTQVTVSS	low polyreactivity
QVQLVESGGGLVQAGGSLRLSSAASGFTFSQYAMGWYRQAPGKERELVAAISVSGGTTYYADSVKGRFTISRDNAKNTVYLQMNSLKPEDTAVYYCAARTPYSRSPYVNTSGYYYWGQGTQVTVSS	high polyreactivity
QVQLVESGGGLVQAGGSLRLSCAASGRIFPGNTMGWYRQAPGKERELVAAISSSTGNTYYADSVKGRFTISRDNAKNTVYLQMNSLKPEDTAVYYCAARTRQISIVGYNYWGQGTQVTVSS	high polyreactivity
QVQLEESGGGLVQAGGSLRLSCAASGSTFTPYAMGWYRQAPGKERELVAAISWSGGSTYYADSVKGRFTISRDNAKNTVYLQMNSLKPEDTAVYYCAATYSYRTRAWGWGNYDYWGQGTQVTVSS	high polyreactivity
QVQLVESGGGLVQAGGSLRLSCAASGRIFYSNAMGWYRQAPGKERELVATISRGGSTYADSVKGRFTISRDNAKNTVYLQMNSLKPEDTAVYYCAAGLQGYPRKFNYWGQGTQVTVSS	low polyreactivity
QVQLVESGGGLVQAGGSLRLSCAASGRIFAVNAMGWYRQAPGKERELVASIRWSGGSTYYADSVKGRFTISRDNAKNTVYLQMNSLKPEDTAVYYCAAVFYLWGQGTQVTVSS	high polyreactivity
QVQLVESGGGLFQAGGSLRLICADSGRTFGYNAMGWYRKATGKDRELVAAINWSGASTYYADSVKGRFTISRDNAKNTVYLQMNCLKPEDTAVYYCAAAYSYIYGFDYWGQGTQVTVSS	low polyreactivity
QVQLVESGGGLVQAGGSLRLSCAASGSTFYYYVMGWYRQAPGKERELVAAISRGGGSTYYADSVKGRFTISRDNAKNTVYLQMNSLKPEDTAVYYCAAASYYVEGDYWGQGTQVTVSS	low polyreactivity
QVQLVESGGGLVQAGGSLRLSCAASGSTFVYNAMGWYRQAPGKERELVAAISRRGGSTYYADSVKGRFTISRDNAKNTVYLQMNSLKPEDTAVYYCATDRVQDSYYWGQGTQVTVSS	high polyreactivity

Sequence	polyreactivity (PSR sort gate)
QVQLVESGGCKVQAGGSLRISCAASGRIFGYYMGWYRQAPGKEREMVARITFRGGSTYYADSVKGRFTNSRDNAKNNVYLQMNSLKPEDTAVYYCNARGKGGSTNRSDYWGQGTQVTVSS	high polyreactivity
QDQLVDSGGGLVQAGGSLRLSCAASGRTFTVYAMGWYRQAPGKERELVAAISGSSGSTDYADSVKGRFTISRDNAKNTVYLQMNSLKPEDTAVYYCAKASSATRYVQLRQDYDYWGQGTQVTVSS	low polyreactivity
QVQLVESGGGLVQAGGSLRLSCAASGRIFGRYAMGWYRQAPGKERELVAAISSSGGTTYYADSVKGRFTISRDKAKNTVYLQMNSLKPEDTAVYYCAKRGYYYGYDYWGQGTQVTVSS	high polyreactivity
QVQLVESGGGLVQAGGSLRLSCAASGLTFSKYVMGWYRQAPGKERELVAAITWSGGRTYYADSVKGRFTISRDNAKNTVYLQMNSLKPEDTAVYYCNRKLKGLGYEYDYWGQGTQVTVSS	high polyreactivity
QVQLVESGGGLVQAGGSLRLSCAASGLTFWYYAMGWYRQAPGKERELVAAISFSGGRTYYADSVKGRFTISRDNAKYTVYLQMNSLKPEDTAVYYCNKATWYPFWYAPSYDYWGQGTQVTVSS	high polyreactivity
QGLLVESGGGLVQAGGSLRLTCAASGFIFSGYAMGWYRPAPGKERELVAAISWSGSSTYYADSVKGRFTISRDNAKNTVYLQMNSLKPEDTAVYYCAAWYTSTRPYDYWGQGTQVTVSS	high polyreactivity
QVQLVESGGGLVQAGGSLRLSCAASGRTIYYYAMGWYRQAPGKEREFVAAISWHGGSTYYADSVKGRFTISRDNAKNTVYLQMNSLKPEDTAVYYCAAERYDRVGFDYWGQGTQVTVSS	low polyreactivity
QVQLVESGGGLVQAGGSLRLSCAASGYIFHNYAMGWYIQAPGKERELVAAITRSAGRTYYADSVKGRFTISRDNAKNTVYLQMNSLKPEDTAVYYCNARYGGRFYYCGQGTQVTVSS	high polyreactivity
QVQLVESGGGLVQAGGSLRLSCAASGFIFYYNAMGWYRQAPGKERELVAAIDSGGRTNYADSVKGRFTISRDNAKNTVYLQMNSLKPEDTAVYYCAADVITYATYGTRKFQRYGYWGQGTQVTVSS	low polyreactivity
QVQLVESGGGLVQAGGSLRLSCAASGSTFYVYAMGVYRQAPGKERELVAAIRGGGSTNYADSVKGRFTISRDNAKNTVYLQMNSLKPEDTAVYYCAARYRSLRYRPSGYSYNYWGQGTQVTVSS	high polyreactivity
QVQLVESGGGLVQAGGSLRLSCAASGFTFYDNAMGWYRQAPGKERELVAAISWGGGSTYYADSVKGRFTISRDNAKNTVYLQMNSLKPEDTAVYYCNVYYGRVLLGFYYWGQGTQVTVSS	low polyreactivity
QDQLVESGGGLVQAGGSLRISCAASGGTFKSYAMGWYREAPGKERELVATITRDGRTNYADSVKGRFTISRDNAKNTVYLQMNSLKPEDTAVYYCNADYWSVWIALEFTVDYWGQGTQVTVSS	low polyreactivity
QVQLVESGGGLVQAVGSLRLSCAASGRTFYYYAMGWYRQAPGKERELVASITYYADSVKGRFTISRDNAKNTVYLQMKSLKPEDTAVYYCAARANSYHSFTSHYDYWGQGTQVSVSS	low polyreactivity
QVQLVESGGGLVQAGGSLRLSCAASGSIFDTYAMGWYRQAPGKEREFVAAISGTDGSTYYADSVKGRFTISRDNAKNTVYLQMNSLKPEDTAVYYCNAEPPRGDTVSSGGEMDYWGQGTQVTVSS	low polyreactivity
QVQLVESGGGLVQAGGSLRLSCAASGITFWSYAMGWYRQAPGKERELVAAITWRGGSTYYADSVKGRFTISRDNAKNTVYLQMNSLKPEDTAVYYCNAVYRRDGYNYWGQGTQVTVSS	high polyreactivity
QVQLVESGGGLVQAGGSLRLSCAASGRTFYYYAMGWYREAPGKERELVAAINSGVTTSYADSVKGRFTISRDNAKNTVYLQMNSLKPEDTAVYYCAARTFSAFWRGGYDYWGQGTQVTVSS	low polyreactivity
QVQLVESGGGLDQAGGSLSLICAASASIFSYYAMGWYRQAAGKERELVATISSGGSTNYADSVKGRFTISRDNAKNTVYLQMNSLKPEDTAVYYCAATIGHNGFDYWGQGTQVTVSS	low polyreactivity
QVQLVESGGGLVQAGGSLRLICAASGSIFTPYVMGWYRQAPGKEREFVAAITQRGGRTYYADSVKGRFTISRDNAKNTVYLQMNSLKPEDTAVYYCAKTSVSRTYHRSAYDYWGQGTQVTVSS	high polyreactivity
QVQLVESGGGLVQAGGSLRLSCAASGFIFYSYAMGWYRQAPGKERELVAAISTSGGSTYYADSVKGRFTISRDNAKNTVYLQMNSLKPEDTAVYYCNARGTRASRYDYWGQGTQVTVSS	high polyreactivity
QVQLVESGGGLVQAGGILRLSCAASGRIFYNYAMGWYRQAPGKERELGAAISGSGGSTYYADSVKGRFTISRDNAKNTVYLQMNSLKPEDTAVYYCSTSGPQYDSRNFDYWGQGTQVTVSS	low polyreactivity
QVQLVESGGGLVQAGGSLRLSCAASGRIFSSNGMGWYRQAPGKERELVAAIRTDGGSTYYADSVKGRFTISRDNAKNTVYLQMNSLKPEDTAVYYCNAQGAYTDVFDVYQRQPDDYWGQGTQVTVSS	low polyreactivity
